These results are taken from PMC6753088, “The cryo-EM structure of the acid activatable pore-forming immune effector Macrophage-expressed gene 1” (Nature Communications, 2019).

Numbering of substitutions follows the chain as printed. Names and notes keep the numbering of the source.

A word on the stoichiometry N: it is the number of molecules, sites or subunits per partner or assembly.

The data set deals with the molecule itself. Description: cryo-EM structure; soluble MPEG1 ectodomain, 2.0-2.5 mg/mL, 20 mM Tris-HCl pH 7.2, 0.3 M NaCl; single particle analysis; two hexadecameric rings stacked head to head (D16, C16 or C1 imposed).

B1: human MPEG1 (Macrophage-expressed gene 1 / Perforin-2) soluble ectodomain, wild type (domain or fragment)
chain: KSGKPSGEMDEVGVQKCKNALKLPVLEVLPGGGWDNLRNVDMGRVMELTYSNCRTTEDGQYIIPDEIFTIPQKQSNLEMNSEILESWANYQSSTSYSINTELSLFSKVNGKFSTEFQRMKTLQVKDQAITTRVQVRNLVYTVKINPTLELSSGFRKELLDISDRLENNQTRMATYLAELLVLNYGTHVTTSVDAGAALIQEDHLRASFLQDSQSSRSAVTASAGLAFQNTVNFKFEENYTSQNVLTKSYLSNRTNSRVQSIGGVPFYPGITLQAWQQGITNHLVAIDRSGLPLHFFINPNMLPDLPGPLVKKVSKTVETAVKRYYTFNTYPGCTDLNSPNFNFQANTDDGSCEGKMTNFSFGGVYQECTQLSGNRDVLLCQKLEQKNPLTGDFSCPSGYSPVHLLSQIHEEGYNHLECHRKCTLLVFCKTVCEDVFQVAKAEFRAFWCVASSQVPENSGLLFGGLFSSKSINPMTNAQSCPAGYFPLRLFENLKVCVSQDYELGSRFAVPFGGFFSCTVGNPLVDPAISRDLGAPSLKKCPGGFSQHPALISDGCQVSYCVKSGLFTGGSLPPARLPPFTRPPLMSQAATNTVIVTNSENARSWIKDSQTHQWRLGEPIELRRAMNVIHGDGGGLS
For B1, the “stoichiometry N” value was 16.

B2: human MPEG1 soluble ectodomain, L425K mutant (domain or fragment)
chain: B1 chain with L425K
modifications: a glycan moiety attached to TMH-2 (residue not given)
For B2, the “stoichiometry N” value was determined as 16.
